test: yeast display, Sf9 membrane polyspecificity reagent, FACS + sequencing; frameworks hold sequencing errors
In short: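 In a synthetic yeast display library (Saccharomyces cerevisiae BJ5465), nanobody expression was induced with galactose for 36–48 hours. FACS gates were set low and high (top ~1%) using anti-HA fluorescence for expression and streptavidin fluorescence for binding of the Sf9 membrane reagent. Each polyreactivity label is drawn from the gate of origin.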

Sequence	polyreactivity (PSR sort gate)
QVQLVESGGRLVQAGGSLRLSCAASGRTFVTNAMGWYRQAPGQERELVAAISSNGGSTYYADSVKGRFTISRDNAKNTVYLQMNSLKPEDTAVYYCNAEGQPLYVSWHDHRYIYGFDYWGQGTQVTVSS	low polyreactivity
QVQLVESGGGLVQAGVSLRLSCAASGSTFYDIAMGWYRQATGKDRELVAAISYSGASTYYADSVKGRFTISRDNAKNTVYLHINSLKPEDTAVYYCAKTFYTLYWGQGTKVTVSS	low polyreactivity
QVQLVESGGGLVQAGGSLRLSCAASGFIFSDYAMGWYRQAPGKERELVAGISDSGGDTYYADSVKGRFTISRDNAKYTVYFQMYSLKPDDTAVYYCAADVELWVFRGQQYDYWGQGTQVTVSS	low polyreactivity
QVQLVESGGGLVQAGGSLRLSCAASGIIFRSNAMGWYRQAPVKETELVAAITGRGTRTYFADSVKGRFTISRDYAKYRVYFQMNSLKPEDTAVYYCNKGQTRGMGYWGQGTQVTVSS	high polyreactivity
QFQLVESGGGLVQAGGSLPLSCAASGSIFLWTAMGWYRQAPGKERELVAAITLRGGSTYYADSLKGRFTISRDNAKYAVYLQLNSLKPEDTAVFYCAADVFLLYDYWGQGTQVTVSS	low polyreactivity
QVQLVESGGGLVQAGGRLRLSCAASGITFSGYVLGWDRPAPGKERELVAAISSSGGRTYYADSVKGRFTISRDNAKNTVYLQMNSLKPEDTAVYYCAARFLYANRYSVDYDYWGQGTQVTVSS	high polyreactivity
QVQLVESGGGLVQAGGSLRLSCAASGSIFYGYAMGWYRQAPGKERELVAAISLSGGRTYYADSVKGRFTLSRDNAKNPVYLQRNSLKPEDTAVYYCAAQTRSSDGPSWYYYWGQGTQVTVSS	high polyreactivity
QVQLVESGGGLVQAGGSLRLSCAASGITFTKYAMGWYRQAPGNERELVAAITTTGGSTYYADSVKGRFTISRDKAKNTVYLQMTSLKPEETAVYYCATELGWGGFYKYGHASQFDYWGQGTQVTVSS	low polyreactivity
QVQLVESGGGLVQAGGSLRLSCAASGITFAYYAMGWYRQAPGKERELVAAITRGGSTFYADSVKGRFTISRDNAKNTVYLQMNSLKPEDTAVYYCAKRYGTNTRYYHPYRYDYWGQGTQVTVSS	high polyreactivity
QVQLVESGGGLLQAGGSLRLSCAASGSIFSGYAMGWYRQAPGKERELVAAISGSGGSTFYADSVKGRFTISRDNAKNTVYLQMNSLKPEDTAVYYCAARRIAPYGRYDYWGQGTQVTVSS	low polyreactivity
QVQLVESGGGLVQAGGSLRLTCAAYGRIFRYYPMGWYRQAPGKERDLVAAINWRGTSTSYADSVKGRFTISRDIAKNTVYLQMNSLKPEETAVYYCARVAWSESDWQKMDYWGQGTQVTVSS	high polyreactivity
QVQLVESGGGLVQAGGSLRLSCAASGRTFGRNAMGWYRQAPGERELVAVISRGGSTYYADSVKGRFTISRDNAKNTVYLQMNSLKPEDTAVYYCNADTVYTRNATYDYWGQCTQVTVSS	low polyreactivity
QVQLVESGGGLVQAGGSLRLSCAASGRIFDFNAMGWYRQAPGKDRELLAAISRGGGSTYYADSVKGRFTMSRDNAKYTVYLQMNSLKPEDTAVYYCNADYYYPLRSNKYYYWGQGTQVTVSS	high polyreactivity
QVQLVESGGGLVQAGGSLRLSCAASGFTFDYYAMGWYRQAPGKERELVAAISVSGGITYYADSVKGRFTISRDNAKNTVYLQMNSLKPEDTAVYYCNAVFYYPYPADRRDYWGQGTQVTVSS	high polyreactivity
QVQLVETGGGLVHAGGSLRLSCAASGFIFVVNAMGWYRQAPGKERELVAAITRNGGSTYYADSVKGRFSISRDNEKNTVYLQMNSLKPEDTAVYYCATYVRRAPSTFDVDYWGLGTQVTVSS	high polyreactivity
QVQLVESGGGLVQAGGSLRLSCAASGRTFTVYGMGWYRQAPGKEREFVATISRRGGRTYYADSVKGRFTISRDNAKNTVYLHMNSLKPEDTAVYYCNADIGTYVRSGGGDFWGQGTQVTVSS	low polyreactivity

Sequence	polyreactivity (PSR sort gate)
QVQLVESGGGLVQAGGSLRLSCAASGNTLNYYTMGWYRQAPGKERELVAAISSSGGSTYYADSVKGRFTISRDNAKNTVYLQMNSLKPEDTAVYYCAVLFYNNFGYWGQGTQVTVSS	low polyreactivity
QVQLVESRGGLVQAGGSLRLSCAASGFTFRLYAMGWSRQAPGKERELVAALTGRGGNTYYADSVMGRFTISRDNAKNTVYLQRNSLNPEDTAVYYCNRYTQWVGYDYWGQGTQVTVSS	high polyreactivity
QVQLVESGGGLVQAGGSLRLSCAASGITFTLYAMGWYRQSPGKERELVAAISRGGGTTYYADSVKGRFTISRDNAKNTVYLQMNSLKPEDTAVYYCATDWHSSGYWGQGTQVTVSS	low polyreactivity
QVQLVESGGGLVQAGGSLRLSCAASGFTFYLYAMGWYRQAPGKEREFVASISYRGTSTYYADSVKGRCTISRDNAKNTVYLQMNSLKPEDTAFYYCAARPSYYRTGYGYWGQGTQVTVSS	high polyreactivity
QVQLVESGGGLVQAGGSLRLSCAASGFIFYKNAMGWSRQAPGKEREFVAAITWSGGNTYYADSVKGRFTISRDNAKNTVYLQLNSLKPEETAVYYCAARDSKWGQGTQVTVSS	low polyreactivity
QVKLVESGGGLVQAGGSLRLSCAASGSTLYQYTMGWYRQAPGKERELVAGISRRGGSTYYAYSVKGRFTISRDNAKNTVYLQMNSLKPEDTAVYYCAKRPHYIAWYGYNGDYWGQGTQVTVSS	high polyreactivity
QVQLVESGGGLVQAGGSLRLSCAASGYTFGHYAMGWYRQAPGKERELVAVITSGGSTNYADSVKGRFTISRDNAKNTVYLQMNSLKPEDTAVYYCAADLYFYYVWIRDYWGQGTQVTVSS	low polyreactivity
QVQLVESGGGLVQAGGSLRLSCAASGHTFRFYTMGWSRQAPGKEREFVAAIRRRTGSTYYADSVKGRFTISRDNAKNTVYLQMNSLKPEDTAVYYCNAVGDARYNYWGQGTQVTVSS	high polyreactivity
QVQLVESRRGLVQAGASLPLRCAASVSTLDTYAMGLYRQAPGKERELVAAISRSGNSTYYADSVKGRFTISRDNAKNTVYLQMNSLKPEDTAVYYCAAYGPRVNGEIGREYYYWGQGTQVTVSS	low polyreactivity
QVQLGESGGGLVQAGGSLRLSCAASGIIFYEYVMVWYRQAPGKEREFVATISSIGGSTYYADSVKGRFTISRDNAKNTVYLQMNSRKPADTAVYYCAADPDPVVAPGGNWYGDDYWGQGSQVTVSS	high polyreactivity
QVQLVESGGGLVQAGGSLRLSCAASGSIFAKYAMGWYRQAPGKERELVASITYSGGGTYYADSVKGRFTISLDNAKNTVYLQMNSLKPEDTAFYYCNAVKRVYIWASFRYVFWYDSWGQATQVTVSS	high polyreactivity
QVQLVESGGGLVQAGGSLRLSCAASGRTFWWYAMGWYRQAPGKERALVAGISSGGSTYYADSVKGRCTISRDNAKKTVYLLMNSRKPEETAVYYCAKTYWYPWRASLWHEYDYWGQGTQVTVSS	low polyreactivity
QVQLVESGGGLVQAGGSLRLSCAASGPTFKRYAMGWYRQAPGKERELVAAITGTGAITYYADSVKGRFTISRDNAKNTVYLQMNSLKPEDTAVYYCAALGYYRYKYQASSNGFDYWGQGTQVTVSS	high polyreactivity
QVQLVESGGGLVQAGGRLRLSCAASGTFRRNAMGWYRQAPGKERELVAAIRWSGGITYYADSVKGRFTISRDNAKNTVYLQMNSLKPEDTADYYCSGQRYYGFGKTYYYWGQGTQVTVSS	high polyreactivity
QVQLVESGGGLVQAGGSLRLSCAASGFTFRPNAMGWYRPAPAKERELVAAISGSGGSTYYADSVKGRFTISRDNAKNTVYLQMNSLKPEDTAVYYFAADSYYDGDYWGQGTQVTVSS	low polyreactivity
